Sequences and labels used below:
B1: Ankyrin-1, residues 1405 to 1484; numbered along this chain, P16157 (parent)
chain: MKMAVISEHLGLSWAELARELQFSVEDINRIRVENPNSLLEQSVALLNLWVIREGQNANMENLYTALQSIDRGEIVNMLE

± gives the uncertainty stated by the source.

The data set covers variants of B1. In words: abundance fitness (aPCA) (normalised: wild type 0, dead -1); higher = more abundant; growth selection in yeast, the domain comes from the species named. To be noted: Homo sapiens.
For MKMAVISEHLGLSWAELARELQFSVEDINRIRVENPNSLLYQSVALLNLWVIREGQNANMENLYTALQSIDRGEIVNMLE [E41Y], the abundance fitness was -0.28 ± 0.096.

With MKMAVISEHLGLSWAELARELQFSVEDINRIRVENPNSLLWQSVALLNLWVIREGQNANMENLYTALQSIDRGEIVNMLE [E41W], the abundance fitness was -0.563 ± 0.1.

With MKMAVISEHLGLSWAELARELQFSVEDINRIRVENPNSLLTQSVALLNLWVIREGQNANMENLYTALQSIDRGEIVNMLE [E41T], the abundance fitness is -0.184 ± 0.072.

On to MKMAVISEHLGLSWAELARELQFSVEDINRIRVENPNSLLVQSVALLNLWVIREGQNANMENLYTALQSIDRGEIVNMLE [E41V], for which the abundance fitness is -0.467 ± 0.067.

Take MKMAVISEHLGLSWAELARELQFSVEDINRIRVENPNSLLEWSVALLNLWVIREGQNANMENLYTALQSIDRGEIVNMLE [Q42W]: the abundance fitness is -0.794 ± 0.17.

In the case of MKMAVISEHLGLSWAELARELQFSVEDINRIRVENPNSLLEVSVALLNLWVIREGQNANMENLYTALQSIDRGEIVNMLE [Q42V], the abundance fitness is -0.813 ± 0.1.

For the variant MKMAVISEHLGLSWAELARELQFSVEDINRIRVENPNSLLEESVALLNLWVIREGQNANMENLYTALQSIDRGEIVNMLE [Q42E], the abundance fitness is -0.926 ± 0.18.

Turning to MKMAVISEHLGLSWAELARELQFSVEDINRIRVENPNSLLEISVALLNLWVIREGQNANMENLYTALQSIDRGEIVNMLE [Q42I], the abundance fitness is -0.915 ± 0.27.

With MKMAVISEHLGLSWAELARELQFSVEDINRIRVENPNSLLERSVALLNLWVIREGQNANMENLYTALQSIDRGEIVNMLE [Q42R], the abundance fitness is -0.152 ± 0.068.

MKMAVISEHLGLSWAELARELQFSVEDINRIRVENPNSLLECSVALLNLWVIREGQNANMENLYTALQSIDRGEIVNMLE [Q42C]: the abundance fitness was -0.061 ± 0.095.

Consider MKMAVISEHLGLSWAELARELQFSVEDINRIRVENPNSLLENSVALLNLWVIREGQNANMENLYTALQSIDRGEIVNMLE [Q42N], for which the abundance fitness was -0.882 ± 0.33.

Regarding MKMAVISEHLGLSWAELARELQFSVEDINRIRVENPNSLLEDSVALLNLWVIREGQNANMENLYTALQSIDRGEIVNMLE [Q42D], the abundance fitness is -0.698 ± 0.17.

MKMAVISEHLGLSWAELARELQFSVEDINRIRVENPNSLLEYSVALLNLWVIREGQNANMENLYTALQSIDRGEIVNMLE [Q42Y]: the abundance fitness was -0.864 ± 0.28.

Regarding MKMAVISEHLGLSWAELARELQFSVEDINRIRVENPNSLLELSVALLNLWVIREGQNANMENLYTALQSIDRGEIVNMLE [Q42L], the abundance fitness was -0.863 ± 0.11.

Consider MKMAVISEHLGLSWAELARELQFSVEDINRIRVENPNSLLEMSVALLNLWVIREGQNANMENLYTALQSIDRGEIVNMLE [Q42M], for which the abundance fitness was -0.172 ± 0.12.

Consider MKMAVISEHLGLSWAELARELQFSVEDINRIRVENPNSLLEGSVALLNLWVIREGQNANMENLYTALQSIDRGEIVNMLE [Q42G], for which the abundance fitness was -0.923 ± 0.12.

Take MKMAVISEHLGLSWAELARELQFSVEDINRIRVENPNSLLEPSVALLNLWVIREGQNANMENLYTALQSIDRGEIVNMLE [Q42P]: the abundance fitness was -1.04 ± 0.23.

For MKMAVISEHLGLSWAELARELQFSVEDINRIRVENPNSLLEFSVALLNLWVIREGQNANMENLYTALQSIDRGEIVNMLE [Q42F], the abundance fitness was -0.899 ± 0.25.

For MKMAVISEHLGLSWAELARELQFSVEDINRIRVENPNSLLESSVALLNLWVIREGQNANMENLYTALQSIDRGEIVNMLE [Q42S], the abundance fitness is -0.383 ± 0.079.

In the case of MKMAVISEHLGLSWAELARELQFSVEDINRIRVENPNSLLEASVALLNLWVIREGQNANMENLYTALQSIDRGEIVNMLE [Q42A], the abundance fitness was -0.257 ± 0.064.

As to MKMAVISEHLGLSWAELARELQFSVEDINRIRVENPNSLLETSVALLNLWVIREGQNANMENLYTALQSIDRGEIVNMLE [Q42T], the abundance fitness is -0.723 ± 0.2.

As to MKMAVISEHLGLSWAELARELQFSVEDINRIRVENPNSLLEQKVALLNLWVIREGQNANMENLYTALQSIDRGEIVNMLE [S43K], the abundance fitness is -0.598 ± 0.15.

Turning to MKMAVISEHLGLSWAELARELQFSVEDINRIRVENPNSLLEQHVALLNLWVIREGQNANMENLYTALQSIDRGEIVNMLE [S43H], the abundance fitness is -0.56 ± 0.14.

Consider MKMAVISEHLGLSWAELARELQFSVEDINRIRVENPNSLLEQPVALLNLWVIREGQNANMENLYTALQSIDRGEIVNMLE [S43P], for which the abundance fitness is -0.721 ± 0.13.

With MKMAVISEHLGLSWAELARELQFSVEDINRIRVENPNSLLEQMVALLNLWVIREGQNANMENLYTALQSIDRGEIVNMLE [S43M], the abundance fitness was -1.05 ± 0.32.

Regarding MKMAVISEHLGLSWAELARELQFSVEDINRIRVENPNSLLEQCVALLNLWVIREGQNANMENLYTALQSIDRGEIVNMLE [S43C], the abundance fitness was -0.552 ± 0.11.

Turning to MKMAVISEHLGLSWAELARELQFSVEDINRIRVENPNSLLEQTVALLNLWVIREGQNANMENLYTALQSIDRGEIVNMLE [S43T], the abundance fitness was -0.807 ± 0.21.

In the case of MKMAVISEHLGLSWAELARELQFSVEDINRIRVENPNSLLEQGVALLNLWVIREGQNANMENLYTALQSIDRGEIVNMLE [S43G], the abundance fitness amounted to 0 ± 0.049.

Turning to MKMAVISEHLGLSWAELARELQFSVEDINRIRVENPNSLLEQLVALLNLWVIREGQNANMENLYTALQSIDRGEIVNMLE [S43L], the abundance fitness was -0.944 ± 0.13.

As to MKMAVISEHLGLSWAELARELQFSVEDINRIRVENPNSLLEQNVALLNLWVIREGQNANMENLYTALQSIDRGEIVNMLE [S43N], the abundance fitness is -0.099 ± 0.27.

MKMAVISEHLGLSWAELARELQFSVEDINRIRVENPNSLLEQVVALLNLWVIREGQNANMENLYTALQSIDRGEIVNMLE [S43V]: the abundance fitness was -0.757 ± 0.11.

Regarding MKMAVISEHLGLSWAELARELQFSVEDINRIRVENPNSLLEQWVALLNLWVIREGQNANMENLYTALQSIDRGEIVNMLE [S43W], the abundance fitness is -0.805 ± 0.17.

Take MKMAVISEHLGLSWAELARELQFSVEDINRIRVENPNSLLEQIVALLNLWVIREGQNANMENLYTALQSIDRGEIVNMLE [S43I]: the abundance fitness was -0.919 ± 0.26.

Consider MKMAVISEHLGLSWAELARELQFSVEDINRIRVENPNSLLEQRVALLNLWVIREGQNANMENLYTALQSIDRGEIVNMLE [S43R], for which the abundance fitness is -0.89 ± 0.14.

For the variant MKMAVISEHLGLSWAELARELQFSVEDINRIRVENPNSLLEQDVALLNLWVIREGQNANMENLYTALQSIDRGEIVNMLE [S43D], the abundance fitness was -0.503 ± 0.15.

These data come from the Human Domainome abundance scans (Beltran et al. 2025).
